Measured values reported in patent publication US7670806B2, “ADP-ribosyl acceptor hydrolase 3 (ARH3) polypeptides and methods of use” (The United States of America as represented by the …, priority 2005, dated 2010).
“Also recorded” adds a separate entry of the source.

Assays:
[1] = Poly(ADP-ribose) hydrolysis (autoradiography, high resolution PAGE, HPLC); type: biochemical; conditions: [32P]poly(ADP-ribose) or poly(ADP-ribose)PARP; 37° C.; autoradiography / PAGE / HPLC
Method: Poly(ADP-ribose) hydrolysis by autoradiography. [^32P]poly(ADP-ribose)PARP (500 ng of PARP with poly(ADP-ribose) was incubated (37° C., 2 h) with 2 μM ARH in 25 μl of 50 mM potassium phosphate buffer, pH 7.5, with or without 10 mM MgCl2 and/or 5 mM DTT. Reactions were stopped by adding 6 μl of 5× Laemmli buffer. Samples (20 μl) of proteins were separated by SDS-PAGE in 4-20% gels and transferred to nitrocellulose membranes that were exposed to X-ray film (Kodak) for 10 h.
Hydrolysis of poly(ADP-ribose) by PARG and ARH3. Purified [^32P] poly(ADP-ribose) (5.5×10^5 cpm, ˜300 nM ADP-ribose) was incubated for the indicated time at 37° C. in 25 μl of 50 mM potassium phosphate, pH 7.5, containing 10 mM MgCl2 and 5 mM DTT with enzyme or other additions as indicated and terminated by addition of 25 μl of 2× electrophoresis buffer (Invitrogen). [^32P]AMP was generated by incubation (37° C., 3 h) of 10 μM [^32P] NAD (10 μCi/reaction) with pyrophosphatase (40 units/mg from SIGMA, 1 mg/ml) in 25 μl of 50 mM KPO4, pH 7.5, and 10 mM MgCl2. [^32P] ADP-ribose was generated in a 25 μl mixture containing 50 mM KPO4, pH 7.5, 25 μg of activated CTA, 10 μM [^32P] NAD (10 μCi/reaction), 10 mM MgCl2, and 5 mM DTT, which was incubated at 30° C. overnight. [^32P] phosphoribosyl-AMP was generated by incubation (37° C., 3 h) of [^32P]poly(ADP-ribose) (5.5×10^5 cpm, ˜300 nM ADP-ribose) with Crotalus adamanteus phosphodiesterase (10 mU/reaction), 25 μl of 50 mM KPO4, pH 7.5, 10 mM MgCl2, and 5 mM DTT. Identities of AMP and ADP-ribose standards were confirmed by HPLC on C18 and SAX columns respectively.
High resolution Polyacrylamide Gel Electrophoresis (PAGE). Polyacrylamide (20%) gels (20×20×0.15 cm) containing polyacrylamide and bis(acrylamide), in a ratio of 19:1, 100 mM Tris-borate, pH 8.3, 2 mM EDTA, 4.4 mM ammonium persulfate, and 3.4 mM TEMED with electrophoresis carried out for 2 h at 400V with 50 mM Tris-borate, pH 8.3, 1 mM EDTA, before application of samples (15 μl) were used for analysis of poly(ADP-ribose) degradation. Subsequent electrophoresis at 400V was stopped when bromophenol blue (BPB) had moved 9 cm from the origin. Gels were exposed to X-ray films (Kodak).
HPLC analysis. HPLC, Hewlett-Packard series 1100 equipped with a diode-array spectrophotometric detector set at 254 nm, was used for separation of reaction products. For anion exchange perfusion chromatography, Zorbax SAX column (4.6×250 mm; DuPont, Wilmington Del.) was washed with 20 mM potassium phosphate, pH 4.5, for 30 min, followed by a linear gradient of 0-1M NaCl in the same buffer for 10 min (30-40 min), then same buffer with 1M NaCl for 10 min (40-50 min) at a flow rate of 1 ml/min. Nicotinamide was eluted at 3 min, NAD at 10 min, and ADP-ribose at 40 min. For reverse phase, Discovery C18 column (4.6×250 mm; SUPELCO, Bellefonte Pa.) was used. Samples were separated isocratically with 100 mM potassium phosphate, pH 6.0 containing 7% methanol at a same flow rate of 1 ml/min. ADP-ribose was eluted at 6 min, NAD at 8 min, nicotinamide 9 min.
Poly(ADP-ribose)PARP was used as substrate to assay potential poly(ADP-ribose) hydrolase activities of recombinant ARH1, 2 or 3. Products were identified by autoradiography and HPLC. Fractions (1 ml) were collected for liquid scintillation counting to quantify [^14C]ADP-ribose, which was eluted in fractions from 34 min to 43 min. Because ARH1 activity may require both DTT and Mg^2+, depending on species (Takada et al. (1993) J. Biol. Chem. 268:17837-17843; Moss et al. (1992) J. Biol. Chem. 267:10481-10488), these reactions were performed with or without 10 mM MgCl2, and/or 5 mM DTT. […] Degradation of [^32P]poly(ADP-ribose) by ARH3 was enhanced by 10 mM MgCl2 (FIG. 4A). Data were similar with mouse ARH3.
Samples of [^14C] ADP-ribosylated PARP (250 ng, 15,000 cpm, ˜850 nM ADP-ribose) were incubated at 37° C. (total volume, 100 μl) with human ARH3 as indicated. […]

ADP-ribose binding assay = conditions: 1 μM ARH3, 3 μM [14C]ADP-ribose, 30° C., 16 h
Method: ADP-ribose binding assay. [^14C]ADP-ribose was generated by incubation overnight at 30° C. of 80 μM (10 μCi) [adenine-U-^14C]NAD with 50 μl of RT6.2 solution (5 nmol/h NADase activity; gift from Dr. Sunhee Park, NHLBI, National Institutes of Health, Bethesda, Md.) in 250 μl of 50 mM potassium phosphate, pH 7.5, and purified by HPLC using Zorbax Sax column as described above. [^14C]ADP-ribose, eluted at 40 min, was stored at −20° C.
To assess protein binding, 1 μM human wild type or D77N/D78N mutant ARH3 was incubated (30° C., 16 h) with 3 μM [^14C]ADP-ribose in 50 mM potassium phosphate buffer, pH 7.5, without or with 10 mM MgCl2, and/or 5 mM DTT (total volume 100 μl). A sample (90 μl) was applied to a column (0.5×4 cm) of Affi-Gel boronate (100 mg, Bio-Rad) which was equilibrated with 0.1 M glycine, pH 9.0, containing 0.1 M NaCl, with or without 10 mM MgCl2, and/or 5 mM DTT, and eluted with five 1-ml portions of the same solution. The total eluate, containing ARH with bound ADP-ribose was collected for liquid scintillation counting.
After incubation of wild-type or mutant ARH3 (1 μM) with [^14C]ADP-ribose (3 μM) (30° C., 16 h) without or with 10 mM MgCl2 and/or 5 mM DTT (total volume 100 μl), unbound ADP-ribose was removed by binding to Affi-gel boronate (Bio-Rad), and ARH3 with ADP-ribose bound, was collected for radioassay. […]

[14C]ADP-ribose binding (ADP-ribose binding assay): similar
B1: ARH3 (D77N/D78N): human ARH3 mutant with dual amino acid replacement D77N/D78N (protein)
chain: MAAAAMAAAAGGGAGAARSLSRFRGCLAGALLGDCVGSFYEAHDTVDLTSVLRHVQSLEPDPGTPGSERTEALYYTNNTAMARALVQSLLAKEAFDEVDMAHRFAQEYKKDPDRGYGAGVVTVFKKLLNPKCRDVFEPARAQFNGKGSYGNGGAMRVAGISLAYSSVQDVQKFARLSAQLTHASSLGYNGAILQALAVHLALQGESSSEHFLKQLLGHMEDLEGDAQSVLDARELGMEERPYSSRLKKIGELLDQASVTREEVVSELGNGIAAFESVPTAIYCFLRCMEPDPEIPSAFNSLQRTLIYSISLGGDTDTIATMAGAIAGAYYGMDQVPESWQQSCEGYEETDILAQSLHRVFQKS
Poly(ADP-ribose) hydrolysis (in words) [1]: inactive; also recorded: No activity
